{"source": "paper doi:10.1101/2022.05.18.492506", "about": "“A multi-domain connector links the outer membrane and cell wall in deep-branching bacteria” (bioRxiv, 2022)", "binders": {"B1": {"name": "uncharacterized protein DR_0644 (natural protein, Deinococcus radiodurans, UniProt Q9RWM2 20-206, looked up)", "chain": "GPTEGTYTLAPQAVVKPAGPVYAPAGTAKISETLGVTRTTITLTGMAPYAIYVAHYHKMGTAAPMGSAPATNTNMAMSSTDATATTTASTSTTSTDTTVAASTDMTTTVTMAPVTAAPNPCNSDGPAIMESRMIAQASADGKVTLTGIVPTALIRDAAYINVHHGRDFSGALADSGVICTPITMTMR", "notes": "uncharacterized protein DR_0644, Deinococcus radiodurans; the mature protein, fitted from the mature N-terminus Gly20 to the C-terminus Arg206, with an unstructured loop 82-133; Identified from the map density combined with structural modelling (rigid-body fit of an AlphaFold2 model); also called accessory protein; additional protein density; source: endogenous, D. radiodurans; present with the …"}, "B2": {"name": "SlpA (Deinococcus radiodurans outer membrane protein) (natural protein, UniProt Q9RRB6 23-1167, looked up)", "chain": "APVSAPQVPALTDVPAGHWAKDAIDRLVSRGVILGYPDGTFRGTQNLTRYEAAIIIARLLDQMRDGETPAGMTAEDMTALQNAIQELAADLAALGVRVSDLEANAVSKDDFARLEARIEEVAAAGGEQGATEALQGQIDDLTARVDEYDALRADVDDNASSIAALNDLTVLLNQDILDLQDRVSAVEAAQADFVQRSDFDALGGRVTTVETRVETVNNSLTGRIAALERNAFSVKPSLTIGYSVSRTSRNFDVDRLFPLNADGTVANNAFTSGGIDTDTGAQRRDFGDFGNASDPVVAGAAGLYGFADGVSYTVYFTDGSTATFDGLNPADYKVPTGKVIDTTKGRNGFGFNNLARYKEGSTDIGISLGFDTSGQFSQVTSGTGGSLFSTAGRLQVNQIDLNFGLVTGLPSDAYVDTNGNGKKDDGEATGRGTYLGSGGTAAILRDPAGNVYRPVFFRFKNATTQFSVGNNPVIVTLGQQQKFYFSDYVFDNNYDGRGDGFTVTVDGSNVPVIGAWKPQIKGVYGSRSGLDGTAEAGYGVYYRGVRAQITPVGTLTAGIHYAQEGRDMFGAAQNTTSTPSDVTTYGADLHGKAFGVELHSEYATSRVRPNTANAAVQTSNAFYARVATRKDNLAFDLNTPAAKFGNDTFGVSLYDLNYRKIDAGYNNVAGISEYGYGSYSRTSAQNIAYNPDTGVTAPFANLDRQAYTDANNDGTSDRNADGTVVATNTKIGQMGFGVKAAANLGPVAIGGYYDTSTGANGDNANRMTEAGGSAKVAYSIFSLRGTYNTLDSNRPQIYRDAAGTQIIGDAKVRRYAVQADVTPGLGLFVGAYYRDVNVNGVRSTTDRGLLGRGYLASSFEPGVGNNAYRTGLRCADNNFGTGTRDIDGVGGVLNPAVNLDQSRTATCFTSYGVEAGHAGDNANALVKDLFFRVGYSRVYVPTTATATTGDFSGSVTYGDARYDRKVGVANVRLAGSFSTTNTQLDSRPAGTRGAVGLIVRTDPLENVPFRPQFNGQVGYYTADNRVAAGNYNANATKYGAGVVLNDFLLPQTKIGVRYDGYMAQNRQYTPFDGDGTQGYFSDANNNRRTNLNGVYVEGAYQDLIFSYGTYTLSQKDLNGVEYGSGINNGQPARGQTFKISYKVNF", "notes": "SlpA, Deinococcus radiodurans, UniProtKB Q9RRB6; Native protein from the source organism, no tags; Only residues 215-1167 are well resolved in the cryo-EM map; also called SlpA protein complex; SlpA porin; source: purified from D. radiodurans (ATCC BAA816): DDM extraction, HiTrap-Q, Superose 6 Increase"}}, "key": {"[1]": {"biological_target": "B2", "assay": "cryo-EM structure; single-particle analysis of SlpA purified from D. radiodurans in detergent (20 mM HEPES/NaOH pH 7.5, 150 mM NaCl, 0.02 % DDM; 4.45 mg/mL); C3 symmetry; global resolution 3.25 Å", "conditions": "both partners purified"}, "[2]": {"biological_target": "the molecule itself", "assay": "cryo-EM structure; single-particle analysis of SlpA purified from D. radiodurans in detergent (20 mM HEPES/NaOH pH 7.5, 150 mM NaCl, 0.02 % DDM; 4.45 mg/mL); C3 symmetry; global resolution 3.25 Å"}}, "data": [{"binder": "B1", "values": [{"measurement": "binding result", "setting": "[1]", "result": "binds"}, {"measurement": "stoichiometry N", "setting": "[2]", "result": 3}]}, {"binder": "B2", "values": [{"measurement": "stoichiometry N", "setting": "[2]", "result": 3}]}]}
